Results published in patent US11278600B2, “Human alpha-galactosidase variants” (Codexis, Inc., priority 2014, dated 2022).

Experiments:
Type in all cases: biochemical
[1] = HTP-analysis of yeast culture supernatants, no challenge (MUGal hydrolysis); conditions: activity of the variant/activity of Rd3BB (SEQ ID NO: 13), yeast supernatant
Procedure, shortened: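 GLA variants expressed in yeast INVSc1, secreted into SD-Ura broth over 66-84 h at 30° C; clarified supernatants tested without challenge. Supernatant mixed with McIlvaine buffer pH 4.8 and 2 mM MUGal (citrate/KCl, pH 4.6), 37° C for 30-180 min, carbonate-quenched, fluorescence Ex 355/Em 448 nm.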

[2] = HTP-analysis of supernatants pretreated with base (MUGal hydrolysis); conditions: challenge at pH 9.7; activity of the variant/activity of Rd3BB (SEQ ID NO: 13); yeast supernatant
Procedure, shortened: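 GLA variants were secreted by transformed INVSc1 yeast grown 66-84 h at 30° C. Supernatants were exposed to neutral-to-basic buffers (pH 7.0-9.7) at 37° C for 1-18 h, then assayed with MUGal in acidic citrate/McIlvaine buffer, with fluorescence read after quenching.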

[3] = HTP-analysis of supernatants pretreated with acid (MUGal hydrolysis); conditions: challenge at pH 3.3; activity of the variant/activity of Rd3BB (SEQ ID NO: 13); yeast supernatant
Procedure, shortened: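 Yeast INVSc1 supernatant, GLA variants; acid challenge: McIlvaine pH 3.3-4.3, 37° C., 1-3 h. Assay: MUGal in McIlvaine pH 4.8 plus citrate pH 4.3, 37° C., 30-180 min, Na2CO3 stop, Ex 355/Em 448 nm.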

Molecule | Relative Activity of GLA Variants After No Challenge (NC) [1] | Relative Activity of GLA Variants After Challenge at pH 9.7 [2] | Relative Activity of GLA Variants After Challenge at pH 3.3 [3]
624 (protein, Synthetic Polypeptide sequence of Variant No. 624 of mature Human GLA) LDNGLARTPTMGWLHWERFMCNLDCQEEPDSCISEKLFMEMAERMVNEGWKDAGYEYLCIDDCWMAPQRDSEGRLQADPQRFPHGIRQLANYVHSKGLKLGIYADVGNKTCAGFPGSFGYYDIDAQTFADWGVDLLKFDGCYCDSLENLADGYKHMSLALNRTGRPIVYSCEWPLYMWPFQKPNYTEIRQYCNHWRNFADIDDSWASIKSILDWTSRNQERIVDVAGPGGWNDPDMLVIGNFGLSWDQQVTQMALWAIMAAPLFMSNDLRAISPQAKALLQDKDVIAINQDPLGKQGYQLRKGDNFEVWERPLSGDAWAVAIINRQEIGGPRSYTIPVASLGKGVACNPACFITQLLPVKRQLGFYNWTSRLKSHINPTGTVLLQLENTQQMSLKDLL | + (+ = 1.5 to 5 relative activity over Rd3BB (SEQ ID NO: 13)) | ++ (++ = >5 to 10 relative activity over Rd3BB (SEQ ID NO: 13)) | ++ (++ = >5 to 10 relative activity over Rd3BB (SEQ ID NO: 13))
625 (protein, Synthetic Polypeptide sequence of Variant No. 625) LDNGLARTPTMGWLHWERFMCNLDCQEEPDSCISEKLFMEMAERMVTEGWKDAGYEYLCIDDCWMAPQRDSEGRLQADPQRFPHGIRQLANHVHSKGLKLGIYADVGNKTCAGFPGSFGYYDIDAQTFADWGVDLLKFDGCYCDSLENLADGYKHMSLALNRTGRPIVYSCEWPLYMWPFQKPNYTEIRQYCNHWRNFADIDDSWASIKSILDWTSRNQERIVDVAGPGGWNDPDMLVIGNFGLSWDQQVTQMALWAIMAAPLFMSNDLRAISPQAKALLQDKDVIAINQDPLGKQGYQLRKGDNFEVWERPLSGDAWAVAIINRQEIGGPRSYTIPVASLGKGVACNPACFITQLLPVKRQLGFYNWTSRLKSHINPTGTVLLQLENTMQTSLKDLL | + (+ = 1.5 to 5 relative activity over Rd3BB (SEQ ID NO: 13)) | ++ (++ = >5 to 10 relative activity over Rd3BB (SEQ ID NO: 13)) | ++ (++ = >5 to 10 relative activity over Rd3BB (SEQ ID NO: 13))
626 (protein, Synthetic Polypeptide sequence of Variant No. 626 of mature Human GLA) LDNGLARTPTMGWLHWERFMCNLDCQEEPDSCISEKLFMEMAERMVSEGWKDAGYEYLCIDDCWMAPQRDSEGRLQADPQRFPHGIRQLANHVHSKGLKLGIYADVGNKTCAGFPGSFGYYDIDAQTFADWGVDLLKFDGCYCDSLENLADGYKHMSLALNRTGRPIVYSCEWPLYMWPFQKPNYTEIRQYCNHWRNFADIDDSWASIKSILDWTSRNQERIVDVAGPGGWNDPDMLVIGNFGLSWDQQVTQMALWAIMAAPLFMSNDLRAISPQAKALLQDKDVIAINQDPLGKQGYQLRKGDNFEVWERPLSGDAWAVAIINRQEIGGPRSYTIPVASLGKGVACNPACFITQLLPVKRQLGFYNWTSRLKSHINPTGTVLLQLENTQQMSLKDLL | + (+ = 1.5 to 5 relative activity over Rd3BB (SEQ ID NO: 13)) | ++ (++ = >5 to 10 relative activity over Rd3BB (SEQ ID NO: 13)) | ++ (++ = >5 to 10 relative activity over Rd3BB (SEQ ID NO: 13))
